Data published in the supplement of paper PMC5998384.

How the values were obtained:
HeLa Kyoto [1] = experiment: solubility in G1/S (NP-40 vs SDS abundance) (log2 ratio); higher = more soluble; conditions: cell cycle stage: G1/S
HeLa Kyoto [2] = experiment: solubility change mitosis vs G1/S (difference of NP-40 vs SDS log2 ratios) (log2 ratio difference); higher = more soluble in mitosis
HeLa Kyoto [3] = experiment: melting temperature (median over replicates), in situ; higher = more thermally stable
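Wherever melting temperature (median over replicates), in situ is given: HeLa Kyoto cells synchronized by double thymidine or nocodazole block, proteins quantified by TMT10plex mass spectrometry, three independent biological replicates.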
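Wherever solubility change mitosis vs G1/S (difference of NP-40 vs SDS log2 ratios) is given: synchronized HeLa Kyoto cells (double thymidine block for G1/S, nocodazole release for mitosis), protein amounts in NP-40 versus SDS lysates quantified by mass spectrometry, three biological replicates.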
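Wherever solubility in G1/S (NP-40 vs SDS abundance) is given: HeLa Kyoto cells arrested at G1/S by double thymidine block, proteins quantified by TMT10plex mass spectrometry in mild NP-40 versus SDS extracts, three biological replicates.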

Row | Sequence | solubility in G1/S (log2) (HeLa Kyoto [1]) | solubility change mitosis (log2) (HeLa Kyoto [2]) | melting temperature (HeLa Kyoto [3]; cell cycle stage: G1/S) [°C] | melting temperature (HeLa Kyoto [3]; cell cycle stage: mitosis) [°C]
1 | MANSANTNTVPKLYRSVIEDVINDVRDIFLDDGVDEQVLMELKTLWENKLMQSRAVDGFHSEEQQLLLQVQQQHQPQQQQHHHHHHHQQAQPQQTVPQQAQTQQVLIPASQQATAPQVIVPDSKLIQHMNASNMSAAATAATLALPAGVTPVQQILTNSGQLLQVVRAANGAQYIFQPQQSVVLQQQVIPQMQPGGVQAPVIQQVLAPLPGGISPQTGVIIQPQQILFTGNKTQVIPTTVAAPTPAQAQITATGQQQPQAQPAQTQAPLVLQVDGTGDTSSEEDEDEEEDYDDDEEEDKEKDGAEDGQVEEEPLNSEDDVSDEEGQELFDTENVVVCQYDKIHRSKNKWKFHLKDGIMNLNGRDYIFSKAIGDAEW [GTF2A1] | -0.719 | 0.475 | 56.2 | 57.2
2 | MKVLLLKDAKEDDCGQDPYIRELGLYGLEATLIPVLSFEFLSLPSFSEKLSHPEDYGGLIFTSPRAVEAAELCLEQNNKTEVWERSLKEKWNAKSVYVVGNATASLVSKIGLDTEGETCGNAEKLAEYICSRESSALPLLFPCGNLKREILPKALKDKGIAMESITVYQTVAHPGIQGNLNSYYSQQGVPASITFFSPSGLTYSLKHIQELSGDNIDQIKFAAIGPTTARALAAQGLPVSCTAESPTPQALATGIRKALQPHGCC [UROS] | 0.234 | 0.14 | 51.5 | 52.4
3 | MSLVDLGKKLLEAARAGQDDEVRILMANGAPFTTDWLGTSPLHLAAQYGHYSTTEVLLRAGVSRDARTKVDRTPLHMAASEGHASIVEVLLKHGADVNAKDMLKMTALHWATEHNHQEVVELLIKYGADVHTQSKFCKTAFDISIDNGNEDLAEILQIAMQNQINTNPESPDTVTIHAATPQFIIGPGGVVNLTGLVSSENSSKATDETGVSAVQFGNSSTSVLATLAALAEASAPLSNSSETPVVATEEVVTAESVDGAIQQVVSSGGQQVITIVTDGIQLGNLHSIPTSGIGQPIIVTMPDGQQVLTVPATDIAEETVISEEPPAKRQCIEIIENRVESAEIEEREALQKQLDEANREAQKYRQQLLKKEQEAEAYRQKLEAMTRLQTNKEAV [GABPB1] | 0.111 | -0.139 | 46.9 | 49.7
4 | MDTLDRVVKPKTKRAKRFLEKREPKLNENIKNAMLIKGGNANATVTKVLKDVYALKKPYGVLYKKKNITRPFEDQTSLEFFSKKSDCSLFMFGSHNKKRPNNLVIGRMYDYHVLDMIELGIENFVSLKDIKNSKCPEGTKPMLIFAGDDFDVTEDYRRLKSLLIDFFRGPTVSNIRLAGLEYVLHFTALNGKIYFRSYKLLLKKSGCRTPRIELEEMGPSLDLVLRRTHLASDDLYKLSMKMPKALKPKKKKNISHDTFGTTYGRIHMQKQDLSKLQTRKMKGLKKRPAERITEDHEKKSKRIKKN [RPF2] | -2.68 | 1.42 | – | 53.4
5 | MDLHMMNCELLATCSALGYLEGDTYHKEPDCLESVKDLIRYLRHEDETRDVRQQLGAAQILQSDLLPILTQHHQDKPLFDAVIRLMVNLTQPALLCFGNLPKEPSFRHHFLQVLTYLQAYKEAFASEKAFGVLSETLYELLQLGWEERQEEDNLLIERILLLVRNILHVPADLDQEKKIDDDASAHDQLLWAIHLSGLDDLLLFLASSSAEEQWSLHVLEIVSLMFRDQNPEQLAGVGQGRLAQERSADFAELEVLRQREMAEKKTRALQRGNRHSRFGGSYIVQGLKSIGERDLIFHKGLHNLRNYSSDLGKQPKKVPKRRQAARELSIQRRSALNVRLFLRDFCSEFLENCYNRLMGSVKDHLLREKAQQHDETYYMWALAFFMAFNRAASFRPGLVSETLSVRTFHFIEQNLTNYYEMMLTDRKEAASWARRMHLALKAYQELLATVNEMDISPDEAVRESSRIIKNNIFYVMEYRELFLALFRKFDERCQPRSFLRDLVETTHLFLKMLERFCRSRGNLVVQNKQKKRRKKKKKVLDQAIVSGNVPSSPEEVEAVWPALAEQLQCCAQNSELSMDSVVPFDAASEVPVEEQRAEAMVRIQDCLLAGQAPQALTLLRSAREVWPEGDVFGSQDISPEEEIQLLKQILSAPLPRQQGPEERGAEEEEEEEEEEEEELQVVQVSEKEFNFLDYLKRFACSTVVRAYVLLLRSYQQNSAHTNHCIVKMLHRLAHDLKMEALLFQLSVFCLFNRLLSDPAAGAYKELVTFAKYILGKFFALAAVNQKAFVELLFWKNTAVVREMTEGYGSLDDRSSSRRAPTWSPEEEAHLRELYLANKDVEGQDVVEAILAHLNTVPRTRKQIIHHLVQMGLADSVKDFQRKGTHIVLWTGDQELELQRLFEEFRDSDDVLGHIMKNITAKRSRARIVDKLLALGLVAERRELYKKRQKKLASSILPNGAESLKDFCQEDLEEEENLPEEDSEEEEEGGSEAEQVQGSLVLSNENLGQSLHQEGFSIPLLWLQNCLIRAADDREEDGCSQAVPLVPLTEENEEAMENEQFQQLLRKLGVRPPASGQETFWRIPAKLSPTQLRRAAASLSQPEEEQKLQPELQPKVPGEQGSDEEHCKEHRAQALRALLLAHKKKAGLASPEEEDAVGKEPLKAAPKKRQLLDSDEEQEEDEGRNRAPELGAPGIQKKKRYQIEDDEDD [TIMELESS] | -0.204 | -0.0762 | 49.5 | 49.2
6 | MRESALERGPVPEAPAGGPVHAVTVVTLLEKLASMLETLRERQGGLARRQGGLAGSVRRIQSGLGALSRSHDTTSNTLAQLLAKAERVSSHANAAQERAVRRAAQVQRLEANHGLLVARGKLHVLLFKEEGEVPASAFQKAPEPLGPADQSELGPEQLEAEVGESSDEEPVESRAQRLRRTGLQKVQSLRRALSGRKGPAAPPPTPVKPPRLGPGRSAEAQPEAQPALEPTLEPEPPQDTEEDPGRPGAAEEALLQMESVA [PRKCDBP] | 0.305 | 0.338 | 53.9 | 52.8
7 | MRPLLGLLLVFAGCTFALYLLSTRLPRGRRLGSTEEAGGRSLWFPSDLAELRELSEVLREYRKEHQAYVFLLFCGAYLYKQGFAIPGSSFLNVLAGALFGPWLGLLLCCVLTSVGATCCYLLSSIFGKQLVVSYFPDKVALLQRKVEENRNSLFFFLLFLRLFPMTPNWFLNLSAPILNIPIVQFFFSVLIGLIPYNFICVQTGSILSTLTSLDALFSWDTVFKLLAIAMVALIPGTLIKKFSQKHLQLNETSTANHIHSRKDT [TMEM41A] | 0.0255 | -0.205 | 55.1 | 55.5
8 | MSTGPTAATGSNRRLQQTQNQVDEVVDIMRVNVDKVLERDQKLSELDDRADALQAGASQFETSAAKLKRKYWWKNCKMWAIGITVLVIFIIIIIVWVVSS [VAMP3] | 0.0764 | -0.16 | – | 54.7
